Experimental data as given in publication PMC7017808.

What was measured:
[1] = tested on: T1, SigL (sigma-54) (Clostridium beijerinckii), ORF:07123114; experiment: EMSA; settings: Not stated in the material; EMSA as in Zhang et al., 2014, with Cy5-labelled DNA
T1 sequence: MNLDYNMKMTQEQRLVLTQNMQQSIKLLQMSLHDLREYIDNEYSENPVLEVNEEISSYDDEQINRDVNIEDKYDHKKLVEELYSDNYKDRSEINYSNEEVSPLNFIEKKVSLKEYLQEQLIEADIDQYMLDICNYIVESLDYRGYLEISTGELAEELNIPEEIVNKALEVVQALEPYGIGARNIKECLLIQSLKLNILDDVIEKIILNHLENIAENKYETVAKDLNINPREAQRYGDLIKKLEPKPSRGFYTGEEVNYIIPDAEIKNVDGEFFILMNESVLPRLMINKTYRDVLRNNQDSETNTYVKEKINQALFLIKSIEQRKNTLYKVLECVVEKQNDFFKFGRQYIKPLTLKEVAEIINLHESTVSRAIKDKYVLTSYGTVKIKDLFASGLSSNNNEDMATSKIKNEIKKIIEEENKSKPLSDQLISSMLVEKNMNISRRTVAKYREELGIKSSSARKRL

[2] = tested on: T2, AdhR-DBD (Clostridium beijerinckii), ORF:f910ab61; experiment: EMSA; settings: Not stated in the material; EMSA as in Zhang et al., 2014, with Cy5-labelled DNA
T2 sequence: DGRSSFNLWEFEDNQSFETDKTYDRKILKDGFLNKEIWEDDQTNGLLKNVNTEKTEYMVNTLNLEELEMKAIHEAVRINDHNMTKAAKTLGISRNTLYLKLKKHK

Sequence | binding [1] | binding [2]
AGCCAGTGGCGATAAGAAAGTAAAACACATAATAATTGTTTTTAAAGTGTTTTATTATCCTCAAAAGTGCATAAATGCTACGATTGAACTCATGATCACATTTTTATTTCTGCATCAAAAACTTGGCACGGTTATTGCTTTATATATAAGCATAAGAGAAACAAAACAAAATTATATAAAGTATAAAAACAAAAAGTATTAAAAGGAGAGAGCGAACTTATCGCCACTGGCT (double strand) [adhA1 promoter -24/-12 fragment] | binds | 
AGCCAGTGGCGATAAGAACAAAAAACTCGTAATTCCTCAGAAATATTATATTTAAAGGTTTTAAATTAAGTTATTAAATATATATATAATAAGTTATACATAAATTGATTGTTAAGCATATACTCATTTATATAAATAATTTTTAACAAAGATATGTCCTAAAATAATACAGTATAAATTTAATACAGCGTAATATTTTAGGACATGCTTTATAATCTTATCGCCACTGGCT (double strand) [adhA1 promoter UAS fragment] |  | binds
AGCCAGTGGCGATAAGTTAAATAAATAAACTATCATGAATCAAAAATTAACAATGTCTAAACTTAAAAAATGCAAAAAAATATATGTCCTAAAAGCATACAGTGTAATAAAACTGAACATTTTATTTATAAATTGTATTTTTTTAATACAGTAAATTTGCATTAGAAAAACTATATTGTTAATAATTAGATTATAAAATTTCAATAAATGGGGAGACTTATCGCCACTGGCT (double strand) [adhA2 promoter UAS fragment] |  | binds
AGCCAGTGGCGATAAGTTTTAACCTCTCCTTGGATATTTTTTTTACTAGCATTCATCTATTACACTATTATATAAAGCAAGTTTTATACCAATATTATATTTATACATAAATAAATATAAATCATCTCATAATCGCACAATTCATGAATCGAAGTGTGCAACTTTAAAAAAATAGTGTGTAATTTAACTTACACACTGCCTTATCGCCACTGGCT (double strand) [adhA2 promoter -24/-12 fragment] | binds | 
